# Measured values published in the supplement of paper PMC10126150.
# ± gives the standard deviation of the averaged measurements.
# System: ATP
# Test: switch fluorescence ratio, 500 uM ATP over buffer (Cy3 cluster intensity, sum of 5 cycles each) (fold (ratio)); higher = stronger signal-on switching upon ATP binding; sequences stand for … in TCGTCGGCAGCGTCAGATGTGTATAAGAGACAGTTTTTTTTTTTTTTTTTTTTTTTTT…TC
# Settings: aptamer strand: ATP DNA aptamer (quencher-CACCTGGGGGAGTATTGCGGAGGAAGG + anchor), 100 nM annealed; ATP concentration: 500 uM
# Procedure, shortened: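 Imaging in selection buffer was followed by imaging after 15 min with 500 uM ATP at 22 °C, for Cy3-labelled switching-strand clusters annealed to 100 nM quencher-labelled ATP aptamer on a modified Illumina MiSeq flow-cell. Five of these buffer/ATP cycles ran, separated by NaOH stripping and re-annealing. The fluorescence ratio per cluster is summed target-cycle over summed buffer-cycle Cy3 intensity, averaged per switch-domain sequence; clusters outside 100-1000 RFU were removed.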
# 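Further: ATP exposure 15 min at 22 °C before imaging.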
row,Sequence,switch fluorescence ratio
1,GAGGTTTGTA,0.974 ± 0.013
2,CGGTACGCTG,1.01 ± 0.017
3,GGACACGGTA,1.12 ± 0.029
4,TGGGTACGTC,0.998 ± 0.026
5,CAATGAGTAT,1.011 ± 0.003
6,TGGATGGGTA,1.22 ± 0.33
7,GGTTCTGTCC,1.03 ± 0.021
8,GGGGGATACG,0.997 ± 0.033
9,ATTTTTAAGA,1 ± 0.012
10,GCCCGACTCT,1.01 ± 0.041
11,GACGCCGGGT,1.03 ± 0.02
12,TTTTGGTAGT,1.03 ± 0.063
13,AAAAAGTCGG,1.04 ± 0.029
14,TGGGGGTTGT,0.987 ± 0.025
15,TATTTCGCGG,0.993 ± 0.045
16,TTAGCATAAA,1.04 ± 0.024
17,ATGCACACCG,1.087 ± 0.0016
18,TTTCTCTGGT,0.993 ± 0.045
19,ACAGAAATGG,1.014 ± 0.0011
20,TATTTCTGTT,0.984 ± 0.025
21,GTGTGCGCGT,0.983 ± 0.025
22,ATAAGCCTGG,1.01 ± 0.041
23,CGTCGGGAAT,1.35 ± 0.051
24,CTTAAATTTA,1.02 ± 0.022
25,ATTTCTCGGT,1.07 ± 0.066

row,Sequence,switch fluorescence ratio
1,ATTTGCTGTG,0.9916 ± 0.0062
2,CTTCCTATTG,1.08 ± 0.046
3,ACCTTGAGAG,1 ± 0.011
4,GGATTAGCAG,1.034 ± 0.0075
5,TAGGTATGCG,1.18 ± 0.037
6,TGCTCCGTCG,1.2 ± 0.039
7,GGGGTGATGT,0.9803 ± 0.0066
8,GGTAGGTCGT,1.02 ± 0.074
9,AGCTATAGTA,0.991 ± 0.01
10,GAATGGTTGT,1.02 ± 0.023
11,ATGGGGGTCC,1.01 ± 0.068
12,TCGGGTCGTA,1.02 ± 0.019
13,AGGGCTTGCT,0.987 ± 0.038
14,TCGGGGCCTC,1.04 ± 0.024
15,CTGGGTCTTT,0.99 ± 0.015
16,TAGATCCTTT,1.03 ± 0.027
17,GAACTAGGCA,1 ± 0.012
18,AGAGTTGTGA,1.02 ± 0.012
19,TGAGTTTGCG,1.01 ± 0.075
20,GAGGCGTACG,1.04 ± 0.021
21,CCAAGTTTTT,0.98 ± 0.031
22,ATAAGGCAGG,0.999 ± 0.024
23,TAGGATTGTA,0.9806 ± 0.0089
24,ATTTACGGGG,1.04 ± 0.0031
25,AAAATGCGAG,1 ± 0.0062

row,Sequence,switch fluorescence ratio
1,ATTGAGTGTT,0.987 ± 0.034
2,TTATACGGCT,1.11 ± 0.092
3,CTTACTATTC,0.9715 ± 0.0069
4,AAAAGGGTCG,1.05 ± 0.087
5,TCGAGGAATT,1.02 ± 0.02
6,TTATACAGGA,1.019 ± 0.0057
7,TCTTGTGG,0.982 ± 0.012
8,TTATGTCAAA,1.01 ± 0.025
9,TAGTATGGCG,1.04 ± 0.088
10,GTTGAACGCG,1.028 ± 0.0015
11,GGGAGGGGG,0.965 ± 0.045
12,GCGTAAGGTG,1.1 ± 0.084
13,AAACGGTGTG,1.03 ± 0.037
14,CTGTTAATTG,1.016 ± 0.0081
15,GAGATTGGGA,1.04 ± 0.045
16,TCGAGGTAGA,1.01 ± 0.05
17,AATGAAAGGG,0.988 ± 0.025
18,CCGGGGCTTT,1.17 ± 0.021
19,ACGGCGGTGC,1.034 ± 0.0078
20,ATTTAAGAGA,1.01 ± 0.051
21,TGGACTTTTT,0.971 ± 0.057
22,GGGGTTGGAA,0.9873 ± 0.0056
23,TATTTGTCCA,0.981 ± 0.047
24,TTTAAGTTTT,1 ± 0.022
25,ATCCGGGTGT,2.74 ± 0.17

row,Sequence,switch fluorescence ratio
1,GGGCAATATG,1.17 ± 0.06
2,AAACCCGATA,1.05 ± 0.025
3,GATGACAGGT,1.03 ± 0.041
4,TAGACGCTCA,1.105 ± 0.0057
5,TAACTTTTTT,1.02 ± 0.042
6,TGAAAAAGG,0.982 ± 0.019
7,GCTGTTAGAG,1.02 ± 0.022
8,ACGGTTTTAA,1 ± 0.03
9,TTGGTTGTGG,0.972 ± 0.018
10,TTTCAAAGGC,1.17 ± 0.2
11,AGGTGTACTG,1.03 ± 0.058
12,ATTAATTCCG,1.02 ± 0.0097
13,TTTGGGGCCC,1.03 ± 0.041
14,GTCAGGTCTT,0.975 ± 0.021
15,GCGGGGGGCT,1.03 ± 0.041
16,TTTTACTTTA,1.06 ± 0.032
17,TTTGATATGT,0.996 ± 0.039
18,CTAGATTCGC,0.984 ± 0.025
19,GCCCTGGGTC,1.02 ± 0.06
20,TGTCCTCAGC,1.51 ± 0.14
21,ACGGTGTATT,0.998 ± 0.037
22,TGGGGGGTAG,0.988 ± 0.02
23,TGGGTTAGGC,0.97 ± 0.013
24,AGTCGCCTTT,1.02 ± 0.056
25,CTTTTTGTGG,0.9838 ± 0.0075

row,Sequence,switch fluorescence ratio
1,GCTATGAATG,1.01 ± 0.024
2,TTTCCGTGAG,1.63 ± 0.98
3,GCGGGGACGT,1.02 ± 0.027
4,GCCAGGGGGG,1.01 ± 0.029
5,GAATTGAAAA,1.02 ± 0.026
6,AGATTTATTT,1.004 ± 0.0097
7,AGAATAATAG,1.02 ± 0.026
8,GTGGGGGTTT,1.05 ± 0.14
9,ACTCAGACCT,1.3 ± 0.067
10,TCTGTAGTGG,1.03 ± 0.014
11,GCGTTGTTGT,0.981 ± 0.02
12,TTTCGGAAGC,1.005 ± 0.0015
13,GTTCGTATTT,0.997 ± 0.021
14,TGGGTAGATA,0.985 ± 0.045
15,CGATCCCGGG,1.07 ± 0.11
16,GACTGGGGTA,0.988 ± 0.011
17,CGTGGGTGTT,0.946 ± 0.015
18,ATTGCCGGAG,0.999 ± 0.037
19,TCGCTGGGAT,1.2 ± 0.27
20,AAAATTCAGT,0.9893 ± 0.0089
21,GCTGTCATTC,1.01 ± 0.014
22,GGGAAACTAA,1.01 ± 0.031
23,TGATTGAATG,0.9785 ± 0.001
24,GGTGATAGTT,0.994 ± 0.017
25,TGTTTGCTTT,0.986 ± 0.023

row,Sequence,switch fluorescence ratio
1,TTTTTGCAGT,1.02 ± 0.082
2,TTGTTCCTTT,0.9847 ± 0.0076
3,CGGAAATTGG,0.982 ± 0.012
4,TTGTGTAATT,1.06 ± 0.05
5,TTGCTGATTT,0.992 ± 0.059
6,GATGGTTGGG,0.998 ± 0.029
7,CTGTAACGAG,1.008 ± 0.0075
8,TTTTTACTGG,1 ± 0.03
9,TTGTTGGGCC,1.01 ± 0.036
10,ACGAGTTCAT,0.999 ± 0.017
11,TTGTTTCAAG,1.01 ± 0.029
12,TGAGGGAATT,1.01 ± 0.018
13,TTATTTTCGT,0.973 ± 0.018
14,ACCGGTCTAT,1.031 ± 0.00046
15,GGTAAGTGTT,1.003 ± 0.0044
16,ATACCGAGTA,1.01 ± 0.049
17,GTTGGAGGAT,0.9843 ± 0.0026
18,GATTCAGGGT,1 ± 0.024
19,AGAGGGCTTT,0.988 ± 0.032
20,AGCAATTGGT,1.062 ± 0.0086
21,AAATTCATAC,1.052 ± 0.0078
22,AGCTGATGG,1.0343 ± 0.00071
23,AGATTTTGGT,0.9954 ± 0.0026
24,AGAAAGTTTT,0.993 ± 0.025
25,ATTCTTTGGG,1.01 ± 0.02

row,Sequence,switch fluorescence ratio
1,TCTTTCAGGA,0.999 ± 0.013
2,TGACCAATGT,1 ± 0.028
3,AAGGTGGGAC,1.02 ± 0.021
4,AAACCATCCG,1.63 ± 0.064
5,TTAATTATGA,0.991 ± 0.012
6,TTTGGGGCCT,1.06 ± 0.15
7,TTTCATTATT,1.02 ± 0.02
8,GTTGTAAGTT,0.978 ± 0.0098
9,TCCAGTTGTA,0.99 ± 0.019
10,GAAAAAAGAT,1.02 ± 0.014
11,TTTATATTAT,0.993 ± 0.043
12,TTGTTTTCCA,0.987 ± 0.018
13,ATGAGCTGGG,0.966 ± 0.015
14,TTATGTACGT,1.09 ± 0.021
15,AGAAGTTGGA,1 ± 0.05
16,TTTACCCCGC,1.63 ± 0.58
17,ATCGGAGTTC,0.989 ± 0.047
18,CGAGCGGAAG,1.03 ± 0.032
19,ACTTTGTACG,1.06 ± 0.011
20,TTTAATCTGG,0.968 ± 0.021
21,TTGCTCTTGG,0.956 ± 0.0095
22,GTGTAGGGTA,1.01 ± 0.02
23,AAGGATTTTG,0.994 ± 0.022
24,TTATCGATGA,1 ± 0.03
25,TGATGTTGT,1.005 ± 0.0071

row,Sequence,switch fluorescence ratio
1,AGTGGTGGGG,0.966 ± 0.014
2,CGGGGAACTT,1.01 ± 0.019
3,CGTGCCAGCA,0.983 ± 0.045
4,GGATACATGT,1.003 ± 0.0031
5,GAGTCACGTC,0.9468 ± 0.0088
6,TGGTTGGCTC,0.985 ± 0.042
7,GATTGGTGGG,1.003 ± 0.0041
8,TATAATCTGT,1.01 ± 0.017
9,GGCCGACAGC,1.03 ± 0.032
10,GAAAGTAGAG,1.01 ± 0.0018
11,TTAAATGTTG,1.01 ± 0.059
12,TTGCCCCTTA,1.03 ± 0.045
13,CGTGTACATC,1.01 ± 0.011
14,TTTGCCGGAG,1.08 ± 0.065
15,CCGTTACCTG,0.974 ± 0.015
16,GGGTTGGGGA,1.01 ± 0.025
17,TCGATTTCTT,1.1 ± 0.077
18,GATCGCCGTT,1.07 ± 0.063
19,GGGGTCGGTT,1.01 ± 0.051
20,ATTGGGGGAG,0.987 ± 0.033
21,AAGAAGCTTT,1.27 ± 0.38
22,TTTCTCCGTT,1.44 ± 0.55
23,TTTGTGACTA,1.01 ± 0.049
24,TGCTGGGGAC,0.992 ± 0.051
25,GTGTGCGCTG,1.008 ± 0.0073
